{"source": "patent US20110008345A1", "about": "(GlaxoSmithKline, published 2011)", "key": {"[1]": {"molecular_target": "recombinant human TNF-alpha (human, UniProt P01375 77-233)", "assay": "ELISA"}, "RNAse A": {"molecular_target": "T1, RNAse A (UniProt P61823 27-150)", "T1 sequence (looked up)": "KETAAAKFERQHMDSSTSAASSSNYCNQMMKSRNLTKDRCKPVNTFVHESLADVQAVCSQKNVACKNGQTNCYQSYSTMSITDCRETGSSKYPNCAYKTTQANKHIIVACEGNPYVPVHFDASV", "assay": "ELISA"}, "HEL (Hen Egg Lysozyme)": {"molecular_target": "T2, HEL (Hen Egg Lysozyme) (hen, UniProt P00698 19-147)", "T2 construct": "also called hen egg white lysozyme", "T2 sequence (P00698 19-147)": "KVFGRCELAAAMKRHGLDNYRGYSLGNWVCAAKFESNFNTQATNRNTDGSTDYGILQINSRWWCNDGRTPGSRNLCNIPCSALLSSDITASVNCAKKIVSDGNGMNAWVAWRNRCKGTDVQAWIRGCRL", "assay": "ELISA"}, "recombinant human IL-12": {"molecular_target": "T3, recombinant human IL-12 (human, UniProt P29459 23-219; P29460 23-328)", "T3 sequence (looked up) 1": "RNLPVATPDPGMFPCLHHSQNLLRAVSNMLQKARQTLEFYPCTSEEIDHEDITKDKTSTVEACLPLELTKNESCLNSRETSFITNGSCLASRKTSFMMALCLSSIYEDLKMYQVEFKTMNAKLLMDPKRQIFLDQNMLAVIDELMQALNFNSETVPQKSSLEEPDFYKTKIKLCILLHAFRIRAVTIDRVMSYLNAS", "T3 sequence (looked up) 2": "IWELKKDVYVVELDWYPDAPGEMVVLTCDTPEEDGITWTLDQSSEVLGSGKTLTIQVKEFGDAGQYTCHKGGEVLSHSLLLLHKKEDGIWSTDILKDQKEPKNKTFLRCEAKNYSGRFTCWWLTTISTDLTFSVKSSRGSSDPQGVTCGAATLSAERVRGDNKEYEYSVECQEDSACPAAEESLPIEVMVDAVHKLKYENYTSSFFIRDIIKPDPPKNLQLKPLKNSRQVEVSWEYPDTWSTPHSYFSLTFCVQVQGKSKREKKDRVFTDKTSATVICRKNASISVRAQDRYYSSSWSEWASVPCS", "assay": "ELISA"}, "[2]": {"molecular_target": "T4, Recombinant Human HGF R (c-MET)/Fc Chimera (human, UniProt P08581 25-932)", "T4 construct": "bought; also called HGF receptor", "T4 sequence (P08581 25-932 limits assumed, change not shown)": "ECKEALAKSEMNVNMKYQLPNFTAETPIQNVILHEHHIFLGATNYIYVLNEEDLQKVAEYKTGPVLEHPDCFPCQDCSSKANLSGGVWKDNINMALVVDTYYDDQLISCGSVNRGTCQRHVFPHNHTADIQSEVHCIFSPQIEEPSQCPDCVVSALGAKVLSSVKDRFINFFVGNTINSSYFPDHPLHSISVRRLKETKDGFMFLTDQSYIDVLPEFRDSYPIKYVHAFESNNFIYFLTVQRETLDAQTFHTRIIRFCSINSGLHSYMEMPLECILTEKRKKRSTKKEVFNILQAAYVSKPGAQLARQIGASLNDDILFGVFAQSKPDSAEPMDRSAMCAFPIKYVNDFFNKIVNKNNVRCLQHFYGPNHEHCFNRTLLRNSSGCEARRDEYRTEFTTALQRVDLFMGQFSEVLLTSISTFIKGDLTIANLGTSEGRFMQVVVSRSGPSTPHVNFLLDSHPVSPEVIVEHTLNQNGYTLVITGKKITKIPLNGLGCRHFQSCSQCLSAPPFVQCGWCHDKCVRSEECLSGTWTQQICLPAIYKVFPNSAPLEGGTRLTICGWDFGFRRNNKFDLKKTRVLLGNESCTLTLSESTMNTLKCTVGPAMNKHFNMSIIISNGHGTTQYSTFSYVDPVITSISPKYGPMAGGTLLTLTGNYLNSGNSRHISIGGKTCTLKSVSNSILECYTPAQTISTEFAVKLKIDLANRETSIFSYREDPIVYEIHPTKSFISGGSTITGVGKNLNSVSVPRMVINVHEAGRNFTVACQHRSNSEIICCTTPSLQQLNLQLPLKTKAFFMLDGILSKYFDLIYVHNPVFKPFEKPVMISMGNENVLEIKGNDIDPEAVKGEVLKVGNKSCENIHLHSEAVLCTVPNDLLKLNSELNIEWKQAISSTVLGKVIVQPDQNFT", "assay": "ELISA"}, "[3]": {"molecular_target": "recombinant E. coli-expressed human IL-18 (human, UniProt Q14116 37-193)", "assay": "ELISA"}, "[4]": {"molecular_target": "recombinant Sf21-expressed human IL-5 (human, UniProt P05113 20-134)", "assay": "ELISA"}, "recombinant human VEGF": {"molecular_target": "T5, recombinant human VEGF (human, UniProt P15692-4 27-191)", "T5 construct": "also called VEGF165; hVEGF165", "assay": "ELISA"}, "[5]": {"molecular_target": "T6, recombinant E. coli-expressed human IL-13 (human, UniProt P35225 35-146)", "T6 construct": "made and purified at GSK; also called Interleukin-13; rhIL-13", "assay": "SPR"}, "[6]": {"molecular_target": "T7, recombinant E. coli-expressed human IL-4 (human, UniProt P05112 25-153)", "T7 construct": "made and purified at GSK; also called Interleukin-4; rhIL-4", "T7 sequence": "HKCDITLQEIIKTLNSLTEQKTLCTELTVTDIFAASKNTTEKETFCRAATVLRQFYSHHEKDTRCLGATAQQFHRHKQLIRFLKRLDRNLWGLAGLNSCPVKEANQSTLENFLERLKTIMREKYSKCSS", "assay": "SPR"}, "[7]": {"molecular_target": "T7, recombinant E. coli-expressed human IL-4", "assay": "SPR", "remark": "listed apart in the source"}, "[8]": {"molecular_target": "T7, recombinant E. coli-expressed human IL-4", "assay": "SPR", "remark": "listed apart in the source"}, "[9]": {"molecular_target": "T8, recombinant E. coli-expressed cynomolgus IL-13 (cynomolgus, UniProt Q0PW92 21-132)", "T8 construct": "also called cyno IL-13", "assay": "SPR"}, "[10]": {"molecular_target": "T9, recombinant E. coli-expressed cynomolgus IL-4 (cynomolgus, UniProt P79339 25-153)", "T9 construct": "also called cyno IL-4", "T9 sequence (looked up)": "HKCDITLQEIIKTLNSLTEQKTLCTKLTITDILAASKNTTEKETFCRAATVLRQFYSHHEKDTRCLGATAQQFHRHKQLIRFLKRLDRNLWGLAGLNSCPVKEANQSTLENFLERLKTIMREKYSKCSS", "assay": "SPR"}, "[11]": {"molecular_target": "T7, recombinant E. coli-expressed human IL-4", "assay": "SPR", "remark": "listed apart in the source"}, "[12]": {"molecular_target": "T7, recombinant E. coli-expressed human IL-4", "assay": "SPR exp 1"}, "[13]": {"molecular_target": "T7, recombinant E. coli-expressed human IL-4", "assay": "SPR exp 2"}, "[14]": {"molecular_target": "T7, recombinant E. coli-expressed human IL-4", "assay": "SPR exp 1", "remark": "listed apart in the source"}, "[15]": {"molecular_target": "T7, recombinant E. coli-expressed human IL-4", "assay": "SPR exp 2", "remark": "listed apart in the source"}, "[16]": {"molecular_target": "T7, recombinant E. coli-expressed human IL-4", "assay": "SPR exp 3"}, "[17]": {"molecular_target": "T7, recombinant E. coli-expressed human IL-4", "assay": "SPR exp 1", "remark": "listed apart in the source"}, "[18]": {"molecular_target": "T7, recombinant E. coli-expressed human IL-4", "assay": "SPR exp 2", "remark": "listed apart in the source"}, "[19]": {"molecular_target": "T7, recombinant E. coli-expressed human IL-4", "assay": "SPR, purified"}, "[20]": {"molecular_target": "T7, recombinant E. coli-expressed human IL-4", "assay": "SPR, purified", "remark": "listed apart in the source"}, "[21]": {"molecular_target": "T7, recombinant E. coli-expressed human IL-4", "assay": "SPR stoichiometry"}, "[22]": {"molecular_target": "T7, recombinant E. coli-expressed human IL-4", "assay": "cell-based or functional assay"}, "[23]": {"molecular_target": "T9, recombinant E. coli-expressed …", "assay": "cell-based or functional assay"}, "[24]": {"molecular_target": "T7, recombinant E. coli-expressed human IL-4", "assay": "cell-based or functional assay", "remark": "listed apart in the source"}, "[25]": {"molecular_target": "T7, recombinant E. coli-expressed human IL-4", "assay": "ELISA, IL-4 binding to IL4Ralpha-Fc"}}, "data": [{"binder": "Pascolizumab (Anti-human IL-4 monoclonal antibody) (antibody, human IgG1, kappa, V domains shown, also called anti-human IL4 mAb; IL-4 mAb) VH: QVTLRESGPALVKPTQTLTLTCTFSGFSLSTSGMGVSWIRQPPGKGLEWLAHIYWDDDKRYNPSLKSRLTISKDTSRNQVVLTMTNMDPVDTATYYCARRETVFYWYFDVWGRGTLVTVSS VL: DIVLTQSPSSLSASVGDRVTITCKASQSVDYDGDSYMNWYQQKPGKAPKLLIYAASNLESGIPSRFSGSGSGTDFTFTISSLQPEDIATYYCQQSNEDPPTFGQGTKVEIKR", "values": [{"measurement": "binding result", "setting": "[1]", "value": "no binding (tested: 1 ug/ml)"}, {"measurement": "binding result", "setting": "RNAse A", "value": "no binding (tested: 2 ug/mL)"}, {"measurement": "binding result", "setting": "HEL (Hen Egg Lysozyme)", "value": "no binding"}, {"measurement": "binding result", "setting": "recombinant human IL-12", "value": "no binding"}, {"measurement": "binding result", "setting": "[2]", "value": "no binding"}, {"measurement": "binding result", "setting": "[3]", "value": "no binding"}, {"measurement": "binding result", "setting": "[4]", "value": "no binding"}, {"measurement": "binding result", "setting": "recombinant human VEGF", "value": "no binding"}, {"measurement": "binding result", "setting": "[5]", "value": "no binding"}, {"measurement": "Kd", "setting": "[6]", "value": 60, "unit": "pM"}, {"measurement": "koff", "setting": "[6]", "value": 0.000123, "unit": "s⁻¹"}, {"measurement": "kon", "setting": "[6]", "value": "2.04e+06", "unit": "M⁻¹ s⁻¹"}, {"measurement": "Kd", "setting": "[7]", "value": 37, "unit": "pM"}, {"measurement": "Kd", "setting": "[8]", "value": 20, "unit": "pM"}, {"measurement": "binding result", "setting": "[9]", "value": "no binding"}, {"measurement": "Kd", "setting": "[10]", "value": 46, "unit": "pM"}, {"measurement": "koff", "setting": "[10]", "value": 0.000108, "unit": "s⁻¹"}, {"measurement": "kon", "setting": "[10]", "value": "2.34e+06", "unit": "M⁻¹ s⁻¹"}, {"measurement": "Kd", "setting": "[11]", "value": 5.72, "unit": "pM"}, {"measurement": "koff", "setting": "[11]", "value": "2.43e-05", "unit": "s⁻¹"}, {"measurement": "kon", "setting": "[11]", "value": "4.25e+06", "unit": "M⁻¹ s⁻¹"}, {"measurement": "Kd", "setting": "[12]", "value": 30, "unit": "pM"}, {"measurement": "koff", "setting": "[12]", "value": 0.00016, "unit": "s⁻¹"}, {"measurement": "kon", "setting": "[12]", "value": "5.3e+06", "unit": "M⁻¹ s⁻¹"}, {"measurement": "Kd", "setting": "[13]", "value": 60, "unit": "pM"}, {"measurement": "koff", "setting": "[13]", "value": 0.000123, "unit": "s⁻¹"}, {"measurement": "kon", "setting": "[13]", "value": "2.04e+06", "unit": "M⁻¹ s⁻¹"}, {"measurement": "Kd", "setting": "[14]", "value": 13.7, "unit": "pM"}, {"measurement": "Kd", "setting": "[15]", "value": 11, "unit": "pM"}, {"measurement": "Kd", "setting": "[16]", "value": 13, "unit": "pM"}, {"measurement": "Kd", "setting": "[17]", "value": 13.7, "unit": "pM"}, {"measurement": "Kd", "setting": "[18]", "value": 11, "unit": "pM"}, {"measurement": "Kd", "setting": "[19]", "value": 30, "unit": "pM"}, {"measurement": "Kd", "setting": "[20]", "value": 37, "unit": "pM"}, {"measurement": "Stoichiometry", "setting": "[21]", "value": 1.8}, {"measurement": "Mean ND50 (TF-1)", "setting": "[22]", "value": 1.36, "unit": "nM"}, {"measurement": "Mean ND50 (TF-1)", "setting": "[23]", "value": 2.62, "unit": "nM"}, {"measurement": "Mean IC50 (whole blood phospho-STAT6)", "setting": "[24]", "value": 2440, "unit": "pM"}, {"measurement": "IC50", "setting": "[25]", "value": 3450, "unit": "pM"}]}]}
